From patent US20250388640A1 (SYNTHEKINE, published 2025)
Positions count from the first letter of the chain named. Names may count otherwise.

B1: human IL12 mutein, hIL-12p40 E81S, F82A with hIL-12p35-8X His (ligand)
chain 1: IWELKKDVYVVELDWYPDAPGEMVVLTCDTPEEDGITWTLDQSSEVLGSGKTLTIQVKSAGDAGQYTCHKGGEVLSHSLLLLHKKEDGIWSTDILKDQKEPKNKTFLRCEAKNYSGRFTCWWLTTISTDLTFSVKSSRGSSDPQGVTCGAATLSAERVRGDNKEYEYSVECQEDSACPAAEESLPIEVMVDAVHKLKYENYTSSFFIRDIIKPDPPKNLQLKPLKNSRQVEVSWEYPDTWSTPHSYFSLTFCVQVQGKSKREKKDRVFTDKTSATVICRKNASISVRAQDRYYSSSWSEWASVPCS
chain 2: RNLPVATPDPGMFPCLHHSQNLLRAVSNMLQKARQTLEFYPCTSEEIDHEDITKDKTSTVEACLPLELTKNESCLNSRETSFITNGSCLASRKTSFMMALCLSSIYEDLKMYQVEFKTMNAKLLMDPKRQIFLDQNMLAVIDELMQALNFNSETVPQKSSLEEPDFYKTKIKLCILLHAFRIRAVTIDRVMSYLNASGSHHHHHHHH
B2: human IL12 mutein, hIL-12p40 E81G, F82A with hIL-12p35-8X His (ligand)
chain 1: B1 chain 1 with S59G
chain 2: B1 chain 2
B3: human IL12 mutein, hIL-12p40 E81N, F82A with hIL-12p35-8X His (ligand)
chain 1: B1 chain 1 with S59N
chain 2: B1 chain 2
B4: human IL12 mutein, hIL-12p40 E81A, F82D with hIL-12p35-8X His (ligand)
chain 1: B1 chain 1 with S59A, A60D
chain 2: B1 chain 2
B5: human IL12 mutein, hIL-12p40 E81A, F82R with hIL-12p35-8X His (ligand)
chain 1: B1 chain 1 with S59A, A60R
chain 2: B1 chain 2
B6: human IL12 mutein, hIL-12p40 E81A, F82C with hIL-12p35-8X His (ligand)
chain 1: B1 chain 1 with S59A, A60C
chain 2: B1 chain 2
B7: human IL12 mutein, hIL-12p40 E81A, F82F with hIL-12p35-8X His (ligand)
chain 1: B1 chain 1 with S59A, A60F
chain 2: B1 chain 2
B8: human IL12 mutein, hIL-12p40 E81A, F82V with hIL-12p35-8X His (ligand)
chain 1: B1 chain 1 with S59A, A60V
chain 2: B1 chain 2
B9: human IL12 mutein, hIL-12p40 E81A, F82H with hIL-12p35-8X His (ligand)
chain 1: B1 chain 1 with S59A, A60H
chain 2: B1 chain 2
B10: human IL12 mutein, hIL-12p40 E81A, F82W with hIL-12p35-8X His (ligand)
chain 1: B1 chain 1 with S59A, A60W
chain 2: B1 chain 2
B11: human IL12 mutein, hIL-12p40 E81A, F82T with hIL-12p35-8X His (ligand)
chain 1: B1 chain 1 with S59A, A60T
chain 2: B1 chain 2
B12: human IL12 wild type (hIL-12p40 wild type with hIL-12p35-8X His) (ligand)
chain 1: B1 chain 1 with S59E, A60F
chain 2: B1 chain 2
B13: human IL12 mutein, hIL-12p40 E81A, F82G with hIL-12p35-8X His (ligand)
chain 1: B1 chain 1 with S59A, A60G
chain 2: B1 chain 2
B14: human IL12 mutein, hIL-12p40 E81A, F82Y with hIL-12p35-8X His (ligand)
chain 1: B1 chain 1 with S59A, A60Y
chain 2: B1 chain 2
B15: human IL12 mutein, hIL-12p40 E81A, F82Q with hIL-12p35-8X His (ligand)
chain 1: B1 chain 1 with S59A, A60Q
chain 2: B1 chain 2
B16: human IL12 mutein, hIL-12p40 E81A, F82M with hIL-12p35-8X His (ligand)
chain 1: B1 chain 1 with S59A, A60M
chain 2: B1 chain 2
B17: human IL12 mutein, hIL-12p40 E81A, F82P with hIL-12p35-8X His (ligand)
chain 1: B1 chain 1 with S59A, A60P
chain 2: B1 chain 2
B18: human IL12 mutein, hIL-12p40 E81A, F82I with hIL-12p35-8X His (ligand)
chain 1: B1 chain 1 with S59A, A60I
chain 2: B1 chain 2
B19: human IL12 mutein, hIL-12p40 E81A, F82L with hIL-12p35-8X His (ligand)
chain 1: B1 chain 1 with S59A, A60L
chain 2: B1 chain 2

target: T1, hIL-12 receptor signaling complex (hIL-12Rβ1 and hIL-12Rβ2) (human, UniProt P42701 24-662; Q99665 24-862); assay: cell-based or functional assay
T1 sequence (Q99665 24-862, chain 2 of 2, other chains not shown): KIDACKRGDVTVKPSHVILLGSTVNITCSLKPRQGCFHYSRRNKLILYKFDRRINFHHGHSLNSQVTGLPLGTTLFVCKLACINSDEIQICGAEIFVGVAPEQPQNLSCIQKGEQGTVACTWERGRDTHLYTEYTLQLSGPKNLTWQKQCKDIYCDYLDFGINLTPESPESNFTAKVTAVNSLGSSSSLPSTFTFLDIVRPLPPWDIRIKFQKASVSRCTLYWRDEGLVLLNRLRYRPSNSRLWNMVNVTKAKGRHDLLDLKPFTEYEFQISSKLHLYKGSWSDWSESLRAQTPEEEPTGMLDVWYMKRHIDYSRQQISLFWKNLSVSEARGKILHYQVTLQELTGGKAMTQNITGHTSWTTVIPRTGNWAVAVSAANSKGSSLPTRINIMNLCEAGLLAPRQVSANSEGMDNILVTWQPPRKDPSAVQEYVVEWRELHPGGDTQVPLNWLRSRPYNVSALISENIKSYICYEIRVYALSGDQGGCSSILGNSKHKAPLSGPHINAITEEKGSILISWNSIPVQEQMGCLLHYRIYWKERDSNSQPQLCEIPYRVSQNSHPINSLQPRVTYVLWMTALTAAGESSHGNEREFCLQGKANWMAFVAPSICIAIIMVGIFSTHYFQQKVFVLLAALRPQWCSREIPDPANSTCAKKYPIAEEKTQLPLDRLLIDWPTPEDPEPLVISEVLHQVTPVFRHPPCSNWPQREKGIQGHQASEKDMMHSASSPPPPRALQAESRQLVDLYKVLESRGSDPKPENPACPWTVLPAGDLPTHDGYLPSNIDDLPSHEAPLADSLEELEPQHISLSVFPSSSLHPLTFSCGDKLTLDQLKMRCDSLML

Row | Binder | IFNy [gMFI] EC50, CD8+ T Cells | IFNy [gMFI] EC50, CD56hi NK Cells | IFNy [gMFI] Emax, CD8+ T Cells | IFNy [gMFI] Emax, CD56hi NK Cells
1 | B1 | 0.21 nM | 0.73 nM | 11300 gMFI | 206000 gMFI
2 | B2 | 0.14 nM | 0.29 nM | 10700 gMFI | 181000 gMFI
3 | B3 | 0.43 nM | 0.6 nM | 11400 gMFI | 165000 gMFI

target: T1, hIL-12 receptor signaling complex …; assay: cell-based or functional assay; remark: another data set of the same source

Row | Binder | IFNy [%+] EC50, CD8+ T Cells | IFNy [%+] EC50, CD56hi NK Cells | IFNy [%+] Emax, CD8+ T Cells | IFNy [%+] Emax, CD56hi NK Cells
4 | B1 | 0.101 nM | 0.014 nM | 69 %+ | 94.9 %+
5 | B2 | 0.08 nM | 0.01 nM | 67.4 %+ | 93.8 %+
6 | B3 | 0.195 nM | 0.022 nM | 68.2 %+ | 92.8 %+

target: T1, hIL-12 receptor signaling complex …; assay: cell-based or functional assay; remark: another data set of the same source

Row | Binder | pSTAT4 [gMFI] EC50, CD8+ T Cells | pSTAT4 [gMFI] EC50, CD56hi NK Cells | pSTAT4 [gMFI] Emax, CD8+ T Cells | pSTAT4 [gMFI] Emax, CD56hi NK Cells
7 | B4 | 8.72 nM | 15.9 nM | 84000 gMFI | 23300 gMFI
8 | B5 | 5.54 nM | 7.62 nM | 101000 gMFI | 28000 gMFI
9 | B6 | 12.7 nM | 30 nM | 87500 gMFI | 27000 gMFI
10 | B7 | 0.2 nM | 0.63 nM | 107000 gMFI | 36600 gMFI
11 | B8 | 4.33 nM | 17.2 nM | 102000 gMFI | 36800 gMFI
12 | B9 | 4.04 nM | 8.57 nM | 108000 gMFI | 33500 gMFI
13 | B10 | 1.22 nM | 1.82 nM | 111000 gMFI | 30700 gMFI
14 | B11 | 4.5 nM | 10.3 nM | 101000 gMFI | 29300 gMFI
15 | B12 | 30 pM | 60 pM | 121000 gMFI | 37700 gMFI
16 | B13 | 4.92 nM | 13.5 nM | 98200 gMFI | 30300 gMFI
17 | B14 | 0.37 nM | 1.19 nM | 108000 gMFI | 35700 gMFI
18 | B15 | 4.92 nM | 9.87 nM | 91400 gMFI | 25900 gMFI
19 | B16 | 2.64 nM | 4.26 nM | 109000 gMFI | 32200 gMFI
20 | B17 | 2.87 nM | 8.04 nM | 94000 gMFI | 29600 gMFI
21 | B18 | 5.72 nM | 10.4 nM | 106000 gMFI | 30500 gMFI
22 | B19 | 3.12 nM | 7.21 nM | 100000 gMFI | 31100 gMFI

target: T1, hIL-12 receptor signaling complex …; assay: cell-based or functional assay; remark: another data set of the same source

Row | Binder | pSTAT4 [%+] EC50, CD8+ T Cells | pSTAT4 [%+] EC50, CD56hi NK Cells | pSTAT4 [%+] Emax, CD8+ T Cells | pSTAT4 [%+] Emax, CD56hi NK Cells
23 | B4 | 2.13 nM | 3.51 nM | 76.6 %+ | 84.1 %+
24 | B5 | 0.98 nM | 1.36 nM | 80.2 %+ | 86.9 %+
25 | B6 | 3.4 nM | 5.08 nM | 79 %+ | 85.2 %+
26 | B7 | 70 pM | 0.13 nM | 83.3 %+ | 93.5 %+
27 | B8 | 0.76 nM | 1.15 nM | 80.9 %+ | 89.3 %+
28 | B9 | 0.55 nM | 0.97 nM | 79.6 %+ | 89.7 %+
29 | B10 | 0.29 nM | 0.39 nM | 84.1 %+ | 88.4 %+
30 | B11 | 0.87 nM | 1.9 nM | 81.2 %+ | 88.2 %+
31 | B12 | 10 pM | 10 pM | 85 %+ | 91.4 %+
32 | B13 | 1 nM | 1.7 nM | 80.1 %+ | 88 %+
33 | B14 | 90 pM | 0.19 nM | 83.5 %+ | 91.7 %+
34 | B15 | 1.08 nM | 2.05 nM | 78.5 %+ | 85.1 %+
35 | B16 | 0.52 nM | 0.74 nM | 82.2 %+ | 88.1 %+
36 | B17 | 0.71 nM | 1.15 nM | 79.7 %+ | 87.6 %+
37 | B18 | 0.67 nM | 0.9 nM | 79.2 %+ | 86 %+
38 | B19 | 0.71 nM | 1.08 nM | 80.2 %+ | 89.1 %+
